{"source": "paper PMC4586751", "key": {"[1]": {"molecular_target": "F-actin (polymerised chicken muscle G-actin) (chicken) (UniProt P68139)", "assay": "co-sedimentation"}, "[2]": {"molecular_target": "E-cad/α monomer (recombinant; entire E-cadherin cytoplasmic tail fused to αE-catenin) (mouse) (UniProt P09803)", "assay": "ITC"}, "[3]": {"molecular_target": "E-cadΔ70/α monomer (recombinant; E-cadherin cytoplasmic tail lacking the C-terminal 70 aa fused to αE-catenin) (mouse) (UniProt P09803)", "assay": "ITC"}}, "data": [{"substance": "E-cadΔ70/α homodimer (recombinant) (from UniProt P09803 736-815) (complex)", "values": [{"measurement": "Kd", "setting": "[1]", "value": 1600, "unit": "nM"}]}, {"substance": "β-catenin (full-length mouse, recombinant) (from UniProt Q02248 1-781) (natural protein)", "values": [{"measurement": "Kd", "setting": "[2]", "value": 74, "unit": "nM"}, {"measurement": "dH", "setting": "[2]", "value": -58, "unit": "kcal/mol"}, {"measurement": "Kd", "setting": "[3]", "value": 36.6, "unit": "nM"}, {"measurement": "dH", "setting": "[3]", "value": -16.9, "unit": "kcal/mol"}, {"measurement": "stoichiometry N", "setting": "[3]", "value": 1}]}]}
